Target: FMRP isoform 1 (FMRP ISO1) (human (title of cited purification …, UniProt Q06787 1-632))
Experiment: fluorescence spectroscopy

Binder: GGGUACGGGAGGGUAAGGCUGUGGGUCGCGUG (structured_RNA, 2-aminopurine replacing A5) [NR2B 2AP mRNA]
- Kd: 370 nM
